{"source": "paper doi:10.1101/122184", "about": "(bioRxiv, 2017)", "biological_target": "the molecule itself", "test": "crystal structure", "data": [{"protein": "BAR (bialaphos resistance; phosphinothricin acetyltransferase) from Streptomyces hygroscopicus (enzyme, UniProt P16426 1-183, looked up) MSPERRPADIRRATEADMPAVCTIVNHYIETSTVNFRTEPQEPQEWTDDLVRLRERYPWLVAEVDGEVAGIAYAGPWKARNAYDWTAESTVYVSPRHQRTGLGSTLYTHLLKSLEAQGFKSVVAVIGLPNDPSVRMHEALGYAPRGMLRAAGFKHGNWHDVGFWQLDFSLPVPPRPVLPVTEI", "values": [{"measurement": "stoichiometry N", "result": 2}]}]}
